Source: patent US20240327530A1 (ICHNOS SCIENCES, published 2024)

T1: Human IL-1RAP, membrane-bound on human cells (HaCaT, dermal fibroblasts, neutrophils, PBMC, whole blood) (human, UniProt Q9NPH3 21-570)
T1 construct: Endogenous protein on cells
T1 sequence: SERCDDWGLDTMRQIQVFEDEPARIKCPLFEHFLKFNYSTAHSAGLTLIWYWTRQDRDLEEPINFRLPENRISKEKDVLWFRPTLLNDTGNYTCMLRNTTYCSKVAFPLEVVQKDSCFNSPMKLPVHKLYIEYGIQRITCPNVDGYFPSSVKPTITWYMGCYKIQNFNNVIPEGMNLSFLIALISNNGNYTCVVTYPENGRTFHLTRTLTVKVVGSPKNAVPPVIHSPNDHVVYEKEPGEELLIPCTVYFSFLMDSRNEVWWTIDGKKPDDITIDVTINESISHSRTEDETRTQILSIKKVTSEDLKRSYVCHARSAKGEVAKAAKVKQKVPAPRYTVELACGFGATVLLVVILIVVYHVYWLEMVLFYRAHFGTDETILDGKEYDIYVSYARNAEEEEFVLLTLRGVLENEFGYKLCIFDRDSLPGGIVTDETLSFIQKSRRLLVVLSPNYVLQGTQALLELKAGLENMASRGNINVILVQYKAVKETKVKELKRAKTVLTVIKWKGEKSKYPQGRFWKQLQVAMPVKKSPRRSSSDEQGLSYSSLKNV

T2: Recombinant cynomolgus monkey IL-1RAP-ECD(S21-E359)-avi-his protein (cynomolgus monkey, UniProt P59822 21-359 (rhesus entry))
T2 construct: also called cyno IL-1RAP-ECD-Avi-His; recombinant cynomolgus monkey IL-1RAP-avi-his protein
T2 sequence: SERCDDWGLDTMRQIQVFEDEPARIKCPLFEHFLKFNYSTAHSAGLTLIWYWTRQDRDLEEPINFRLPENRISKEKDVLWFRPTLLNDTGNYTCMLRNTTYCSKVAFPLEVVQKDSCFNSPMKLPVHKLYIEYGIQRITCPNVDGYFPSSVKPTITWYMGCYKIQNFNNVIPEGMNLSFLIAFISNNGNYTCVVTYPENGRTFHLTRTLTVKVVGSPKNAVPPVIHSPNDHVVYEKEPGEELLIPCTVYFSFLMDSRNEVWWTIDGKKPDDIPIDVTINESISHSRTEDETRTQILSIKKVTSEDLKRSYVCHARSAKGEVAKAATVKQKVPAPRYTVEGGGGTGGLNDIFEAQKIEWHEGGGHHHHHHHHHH


What was measured:
[1] = biological target: T1, Human IL-1RAP, membrane-bound on human …; assay: flow cytometry on human neutrophils, anti-human IgG PE-Cyanine7, relative geometric MFI (isotype subtracted)
Procedure: A dose-response of anti-human IL-1RAP_candidate_1 (●) or Isotype control_5 (▪) was incubated with various cell lines and cell types. Bound antibodies were detected with a monoclonal anti-human IgG PE-Cyanine7 secondary antibody. The graphs show the nonlinear sigmoidal regression binding curves (Relative Geometric Mean Fluorescence Intensity) for each cell lines. Each data point is a measurement for a given cell line. Multiple independent experiments were performed across several donors (HaCaT and HaCaT IL-1RAP KO: 4 and 3 independent experiments; Human Dermal Fibroblasts: 2 independent experiments—total of 5 donors; Human Neutrophil: 2 experiments—total of 6 donors; Cyno Dermal Fibroblasts: 2 independent experiment—total of 4 donors).
In brief, cells were harvested, counted, and plated at 50,000 cells/well in a 96-well round-bottom plate. […] The cells were gated based on size on FSC vs SSC and analyzed for PE-Cyanine7-geometric mean (geomean) fluorescence intensity using FLOWJO® software. Finally, relative geomean fluorescence intensity was calculated by subtracting fluorescence of anti-human IL-1RAP_candidate_1 per fluorescence of Isotype control_5. […]

[2] = biological target: T2, Recombinant cynomolgus monkey …; assay: SPR

EC50 (read off the curve) [1] [µg/mL]	binding result [2]	Binder
~0.2	–	Anti-IL-1RAP-C8-RecC-ES-IgG1LALA (antibody, V domains shown, also called ISB 880-C8-recC-ES) VH: QVQLVQSGAEVKKPGSSVKVSCKASGSPAEPYAIQWVRQAPGQGLEWMGYIIPSLGGYDYAQKFQGRVTITADESTSTAYMELSSLRSEDTAVYYCARGQTLYESGRQFDIWGQGTLVTVSS VL: not shown
–	no binding	Anti-IL-1RAP-C3-A3 mmIgG2a LALA (antibody, V domains shown, also called anti-IL-1RAP-C3-A3 mouse IgG2a LALA) VH: EVQLLESGGGLVQPGGSLRLSCAASGFIFSHYGMSWVRQAPGKGLEWVSAISYDGEGTLYADSVKGRFTISRDNSKNTLYLQMNSLRAEDTAVYYCARFRYYTAFDYWGQGTLVTVSS VL: not shown
